biological target: anti-CD28 Fab (SEQ ID NOs: 202, 203); test: phage ELISA, Fab on plate;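 further: ELISA of crude clonal phage supernatants on the plate, wells preloaded with CD28 antigen or only blocking buffer, captured phage read out via HRP-linked anti-M13 antibody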
Target sequence in this assay (VH, as listed by the source, chain 1 of 2): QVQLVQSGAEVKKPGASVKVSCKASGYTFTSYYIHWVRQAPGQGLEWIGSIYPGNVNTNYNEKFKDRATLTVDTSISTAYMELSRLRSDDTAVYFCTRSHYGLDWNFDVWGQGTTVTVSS
Target sequence in this assay (VL, as listed by the source, chain 2 of 2): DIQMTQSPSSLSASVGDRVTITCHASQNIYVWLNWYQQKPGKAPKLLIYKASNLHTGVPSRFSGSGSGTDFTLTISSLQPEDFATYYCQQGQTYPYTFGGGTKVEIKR
Description: After panning, phage infected bacteria were plated out and colonies picked into 96 well blocks. Clonal phage was then amplified and separated from bacterial cells via centrifugation.
Clonal phage were harvested as crude supernatants and screened via standard ELISAs. […] Prior to the addition of clonal phage, wells were incubated with blocking buffer and CD28 antigen or blocking buffer alone. Without washing or aspirating, clonal phage supernatants were then added to the wells and incubated for a short time. Wells were then washed followed by detection of bound phage using a horse radish conjugated anti-M13 antibody. Clonal phage of interest were then sent for sequence analysis.

Row | Binder | Anti-CD28 Fab signal
1 | WCSEVFSYPWPACL [Phage-1218] | 0.99
2 | SCTAVFSYALSPCF [Phage-1219] | 0.99

biological target: T1, anti-CD28 Fab (SEQ ID NOs: 202, 203); test: phage binding ELISA; biotinylated Fab on neutravidin plate;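 further: clonal phage supernatants added to Fab wells pretreated with CD28 antigen or with blocking buffer only, bound phage read out via HRP-linked anti-M13 antibody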
T1 construct: biotinylated and captured on neutravidin coated plates in the phage ELISA
T1 sequence (VH, as listed by the source, chain 1 of 2): as the sequence (VH, as listed by the source, chain 1 of 2) above
T1 sequence (VL, as listed by the source, chain 2 of 2): as the sequence (VL, as listed by the source, chain 2 of 2) above
Description: (§1) Clonal phage were harvested as crude supernatants and screened via standard ELISAs. […] Prior to the addition of clonal phage, wells were incubated with blocking buffer and CD28 antigen or blocking buffer alone. Without washing or aspirating, clonal phage supernatants were then added to the wells and incubated for a short time. Wells were then washed followed by detection of bound phage using a horse radish conjugated anti-M13 antibody.

Row | Binder | Anti-CD28 Fab (SEQ ID NOs: 202, 203) signal
3 | YCDGHSPAYMAKCL [Phage-350] | 1.83
4 | YCAGHLPEYLSKCL [Phage-345] | 1.84
5 | YCAGHAPEYMFKCM [Phage-347] | 1.83
6 | YCDGHSWAYMWKCL [Phage-341] | 1.85
7 | YCEGHTSEYMNKCL [Phage-335] | 1.87
8 | YCEGHAAEYMSKCL [Phage-339] | 1.86
9 | YCDGHLAMYMDKCL [Phage-337] | 1.86
10 | YCAGHAPQYMEKCL [Phage-312] | 1.9
11 | YCAGHLPQYIAKCL [Phage-313] | 1.9
12 | YCEGHSPLYMSKCL [Phage-331] | 1.87
13 | YCDGHSAAYIMKCL [Phage-342] | 1.84
14 | YCEGHSWEYIGKCL [Phage-332] | 1.87
15 | YCAGHSSEYMWKCL [Phage-340] | 1.85
16 | YCDGHMPEYLAKCL [Phage-338] | 1.86
17 | YCEGHLQEYMEKCL [Phage-317] | 1.89
18 | YCVGHLQEYMEKCL [Phage-389] | 1.76
19 | YCDGHSPEYMPKCL [Phage-319] | 1.89
20 | YCEGHSLEYMAKCL [Phage-327] | 1.88
21 | YCDGHLKEYMAKCL [Phage-314] | 1.9
22 | YCDGHAIEYMAKCL [Phage-446] | 1.69
23 | YCDGHLSEYMFKCL [Phage-371] | 1.79
24 | YCDGHLAEYMPKCL [Phage-320] | 1.89
25 | YCDGHLAEYMVKCL [Phage-375] | 1.79
26 | YCDGHSLQYLGKCL [Phage-343] | 1.84
27 | YCDGHRPEYMEKCL [Phage-315] | 1.9

Row | Binder | Anti-CD28 Fab (SEQ ID NOs: 202, 203) signal
28 | YCDGHTGVYFYKCL [Phage-334] | 1.87
29 | YCEGHLQIYMSKCL [Phage-346] | 1.84
30 | YCEGHLPIYMSKCL [Phage-388] | 1.76
31 | YCDGHSALYMSKCL [Phage-333] | 1.87
32 | YCDGHLPEYMGKCL [Phage-316] | 1.89
33 | YCEGHSPEYMRKCL [Phage-385] | 1.77
34 | YCEGHLPEYMMKCL [Phage-329] | 1.88
35 | YCEGHSYEYMWKCL [Phage-328] | 1.88
36 | YCEGHSPEYMWKCL [Phage-321] | 1.89
37 | YCEGHKPEYMQKCL [Phage-447] | 1.69
38 | YCDGHLPEYMRKCL [Phage-330] | 1.88
39 | YCEGHLPEYMRKCL [Phage-349] | 1.83
40 | YCEGHLPAYMQKCL [Phage-377] | 1.78
41 | YCEGHVAEYMLKCL [Phage-323] | 1.88
42 | YCEGHSAEYMQKCL [Phage-443] | 1.7
43 | YCEGHSQEYMQKCL [Phage-344] | 1.84
44 | YCDGHSSEYIAKCL [Phage-383] | 1.77
45 | YCDGHSPEYIAKCL [Phage-374] | 1.79
46 | YCDGHIDEYLQKCL [Phage-322] | 1.88
47 | YCDGHSWEYIQKCL [Phage-326] | 1.88
48 | YCEGHRPEYMAKCL [Phage-348] | 1.83
49 | YCEGHMSEYMAKCL [Phage-325] | 1.88
50 | YCEGHRSEYMAKCL [Phage-336] | 1.86
51 | YCEGHIPEYMAKCL [Phage-318] | 1.89
52 | YCEGHLSEYMSKCL [Phage-324] | 1.88

biological target: T1, anti-CD28 Fab (SEQ ID NOs: 202, 203); test: phage binding ELISA; Fab wells pre-incubated with CD28 antigen (competitor);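 further: clonal phage supernatants added to wells preincubated with CD28 antigen in blocking buffer versus blocking buffer alone, washed, bound phage read by HRP-conjugated anti-M13 antibody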
Description: as §1

Row | Binder | Anti-CD28 Fab signal in the presence of CD28
53 | YCDGHSPAYMAKCL [Phage-350] | 0.1
54 | YCAGHLPEYLSKCL [Phage-345] | 0.07
55 | YCAGHAPEYMFKCM [Phage-347] | 0.06
56 | YCDGHSWAYMWKCL [Phage-341] | 0.13
57 | YCEGHTSEYMNKCL [Phage-335] | 0.06
58 | YCEGHAAEYMSKCL [Phage-339] | 0.07
59 | YCDGHLAMYMDKCL [Phage-337] | 0.08
60 | YCAGHAPQYMEKCL [Phage-312] | 0.08
61 | YCAGHLPQYIAKCL [Phage-313] | 0.09
62 | YCEGHSPLYMSKCL [Phage-331] | 0.09
63 | YCDGHSAAYIMKCL [Phage-342] | 0.09
64 | YCEGHSWEYIGKCL [Phage-332] | 0.07
65 | YCAGHSSEYMWKCL [Phage-340] | 0.07
66 | YCDGHMPEYLAKCL [Phage-338] | 0.07
67 | YCEGHLQEYMEKCL [Phage-317] | 0.1
68 | YCVGHLQEYMEKCL [Phage-389] | 0.06
69 | YCDGHSPEYMPKCL [Phage-319] | 0.08
70 | YCEGHSLEYMAKCL [Phage-327] | 0.08
71 | YCDGHLKEYMAKCL [Phage-314] | 0.07
72 | YCDGHAIEYMAKCL [Phage-446] | 0.08
73 | YCDGHLSEYMFKCL [Phage-371] | 0.1
74 | YCDGHLAEYMPKCL [Phage-320] | 0.07
75 | YCDGHLAEYMVKCL [Phage-375] | 0.08
76 | YCDGHSLQYLGKCL [Phage-343] | 0.09
77 | YCDGHRPEYMEKCL [Phage-315] | 0.06

Row | Binder | Anti-CD28 Fab signal in the presence of CD28
78 | YCDGHTGVYFYKCL [Phage-334] | 0.08
79 | YCEGHLQIYMSKCL [Phage-346] | 0.14
80 | YCEGHLPIYMSKCL [Phage-388] | 0.09
81 | YCDGHSALYMSKCL [Phage-333] | 0.08
82 | YCDGHLPEYMGKCL [Phage-316] | 0.11
83 | YCEGHSPEYMRKCL [Phage-385] | 0.08
84 | YCEGHLPEYMMKCL [Phage-329] | 0.27
85 | YCEGHSYEYMWKCL [Phage-328] | 0.08
86 | YCEGHSPEYMWKCL [Phage-321] | 0.09
87 | YCEGHKPEYMQKCL [Phage-447] | 0.06
88 | YCDGHLPEYMRKCL [Phage-330] | 0.08
89 | YCEGHLPEYMRKCL [Phage-349] | 0.06
90 | YCEGHLPAYMQKCL [Phage-377] | 0.07
91 | YCEGHVAEYMLKCL [Phage-323] | 0.05
92 | YCEGHSAEYMQKCL [Phage-443] | 0.29
93 | YCEGHSQEYMQKCL [Phage-344] | 0.05
94 | YCDGHSSEYIAKCL [Phage-383] | 0.07
95 | YCDGHSPEYIAKCL [Phage-374] | 0.23
96 | YCDGHIDEYLQKCL [Phage-322] | 0.06
97 | YCDGHSWEYIQKCL [Phage-326] | 0.07
98 | YCEGHRPEYMAKCL [Phage-348] | 0.07
99 | YCEGHMSEYMAKCL [Phage-325] | 0.11
100 | YCEGHRSEYMAKCL [Phage-336] | 0.06
101 | YCEGHIPEYMAKCL [Phage-318] | 0.06
102 | YCEGHLSEYMSKCL [Phage-324] | 0.09

— patent US20260274955A1 (JANUX THERAPEUTICS, published 2026)
